The source of these data is US20110217279.

The subject of data set [1] is T1, hBVR-derived substrate peptide GLKRNRYLSFHFK (hBVR aa222-234).
T1 sequence: GLKRNRYLSFHFKS

Data set [2] concerns T2, variant peptide GLKRNRYLAFHFKSGSL
T2 sequence: GLKRNRYLAFHFKSGSL

The subject of data set [3] is T3, variant peptide GLKRNRYLAFHFK
T3 sequence: GLKRNRYLAFHFK

In data set [4] the target is active recombinant human PKC-δ kinase (as a GST fusion protein), Q05655.
Sequence of active recombinant human PKC-δ kinase (as a GST fusion protein), Q05655 (Q05655 whole entry, looked up, stated change not applied, the tested form may be a part): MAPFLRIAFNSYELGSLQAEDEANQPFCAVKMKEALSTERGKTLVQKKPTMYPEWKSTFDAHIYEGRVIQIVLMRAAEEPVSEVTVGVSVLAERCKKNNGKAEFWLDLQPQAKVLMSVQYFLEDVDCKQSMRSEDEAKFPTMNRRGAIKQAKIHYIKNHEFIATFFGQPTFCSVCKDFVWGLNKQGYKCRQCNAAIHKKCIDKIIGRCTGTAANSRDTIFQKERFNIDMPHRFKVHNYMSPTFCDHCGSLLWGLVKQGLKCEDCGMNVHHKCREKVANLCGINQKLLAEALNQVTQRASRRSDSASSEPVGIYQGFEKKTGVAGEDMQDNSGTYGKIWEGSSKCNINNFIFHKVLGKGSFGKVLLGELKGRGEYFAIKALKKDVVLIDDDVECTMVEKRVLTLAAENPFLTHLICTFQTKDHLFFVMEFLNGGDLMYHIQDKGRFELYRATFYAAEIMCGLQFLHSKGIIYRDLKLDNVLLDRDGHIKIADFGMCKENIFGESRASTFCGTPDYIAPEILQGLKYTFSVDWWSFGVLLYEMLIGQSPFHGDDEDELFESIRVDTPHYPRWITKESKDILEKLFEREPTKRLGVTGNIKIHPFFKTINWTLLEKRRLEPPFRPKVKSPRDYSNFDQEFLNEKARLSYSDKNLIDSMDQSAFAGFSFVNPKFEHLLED

As to “active recombinant human PKC-δ kinase (as a GST fusion protein)”, the “Km (phosphorylation of the peptide, in vitro kinase assay, Michaelis-Menten fit)” value (shortened to “Km”) in data set [1] is “Km of 1.59±0.58 µM”. Besides, the “phosphorylation of the peptide by PKC-δ (kinase assay, FIG. 4C)” value in data set [2] is on record as “As with the shorter peptide, the replacement of serine with alanine markedly decreased phosphorylation of the peptide”; in data set [3], “A variant peptide in which the target serine was replaced by alanine was, as expected, not a substrate for the kinase”.
Consider recombinant PKC-βII, for which the “Km” value in data set [1] is “Km 14.03 µM”.
For recombinant PKC-ζ, the “Km” value in data set [1] is reported as “Km 6.89 µM”.

B1: GST-hBVR fusion protein (protein)
chain: MNAEPERKFGVVVVGVGRAGSVRMRDLRNPHPSSAFLNLIGFVSRRELGSIDGVQQISLEDALSSQEVEVAYICSESSSHEDYIRQFLNAGKHVLVEYPMTLSLAAAQELWELAEQKGKVLHEEHVELLMEEFAFLKKEVVGKDLLKGSLLFTSDPLEEDRFGFPAFSGISRLTWLVSLFGELSLVSATLEERKEDQYMKMTVCLETEKKSPLSWIEEKGPGLKRNRYLSFHFKSGSLENVPNVGVNKNIFLKDQNIFVQKLLGQFSEKELAAEKKRILHCLGLAEEIQKYCCSRK
Turning to B1, the “PKC-δ autophosphorylation, phosphorylation of hBVR and kinase activity toward MBP (in vitro kinase assay)” value in data set [4] was “resulted in phosphorylation of hBVR concomitant with an enhanced PKC-δ autophosphorylation (FIG. 1A), and increased kinase activity toward the substrate, MBP (FIG. 1B)”.
